Starred links: 1 amine or outer side, 2 acyl side, 3 side chain; linkers in the order of their positions; H or OH if unused. Positions of bridges follow the written chain, without caps; N, C: chain ends. Non-standard residues stand in square brackets, D forms with d. Primed or numbered codes have the meaning given here. PyrS2″ = (S)-3-amino-1-((pent-4-en-1-yloxy)carbonyl)pyrrolidine-3-carboxylic acid (stapling residue), C=CCCCOC(=O)N1CC[C@@](N[*:1])(C(=O)[*:2])C1; RdN = (R)-4-(((allyloxy)carbonyl)(methyl)amino)-2-amino-2-methylbutanoic acid, C=CCOC(=O)N(C)CC[C@@](C)(N[*:1])C(=O)[*:2]; B5(3) = 2,2-bis(4-pentenyl)glycine (stitching residue), C=CCCCC(CCCC=C)(N[*:1])C(=O)[*:2]; B5 = 2-amino-2-(pent-4-en-1-yl)hept-6-enoic acid, C=CCCCC(CCCC=C)(N[*:1])C(=O)[*:2]; Phe(3-COOH) = N[C@@H](Cc1cccc(C(=O)O)c1)C(=O)O; S7 = C[C@@](CCCCCC=[*:3])(N[*:1])C(=O)[*:2]; Phe(3-OMe) = COc1cccc(C[C@H](N)C(=O)O)c1; Bta = N[C@@H](Cc1csc2ccccc12)C(=O)O; αAllylPro = C=CC[C@@]1(C(=O)O)CCCN1; tBuAla = CC(C)(C)C[C@H](N)C(=O)O; 3Thi = N[C@@H](Cc1ccsc1)C(=O)O; S8 = C=CCCCCCC[C@](C)(N)C(=O)O
Legend:
[1] = target: T1, full-length beta-Catenin (Uniprot ID P35222) (Homo sapiens (Human), UniProt P35222 2-781); test: fluorescence polarization competition; peptide titrated against 10 nM full-length beta-catenin with 10 nM 5FAM-TCF4(10-53) probe
T1 construct: also called bCat; B-Catenin
T1 sequence: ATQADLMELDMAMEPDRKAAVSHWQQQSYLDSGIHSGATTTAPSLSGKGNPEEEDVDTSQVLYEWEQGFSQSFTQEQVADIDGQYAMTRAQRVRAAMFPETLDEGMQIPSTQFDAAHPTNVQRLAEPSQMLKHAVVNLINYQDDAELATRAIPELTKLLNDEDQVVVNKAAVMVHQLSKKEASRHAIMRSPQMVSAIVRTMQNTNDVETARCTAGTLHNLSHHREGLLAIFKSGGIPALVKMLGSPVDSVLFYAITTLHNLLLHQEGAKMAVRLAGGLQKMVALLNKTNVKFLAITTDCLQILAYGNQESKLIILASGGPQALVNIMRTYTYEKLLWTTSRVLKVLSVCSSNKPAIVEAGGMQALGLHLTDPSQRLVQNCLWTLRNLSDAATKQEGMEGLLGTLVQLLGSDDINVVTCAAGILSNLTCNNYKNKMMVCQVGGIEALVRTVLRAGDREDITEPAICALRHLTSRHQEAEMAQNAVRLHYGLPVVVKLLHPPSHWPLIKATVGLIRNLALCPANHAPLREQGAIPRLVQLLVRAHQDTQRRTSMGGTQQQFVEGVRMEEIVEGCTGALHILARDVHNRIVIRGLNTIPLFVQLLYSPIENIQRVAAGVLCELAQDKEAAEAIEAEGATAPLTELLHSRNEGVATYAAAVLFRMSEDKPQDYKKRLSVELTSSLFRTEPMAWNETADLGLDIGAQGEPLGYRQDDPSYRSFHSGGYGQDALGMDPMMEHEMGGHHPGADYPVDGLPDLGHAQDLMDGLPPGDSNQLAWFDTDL
Method: (§1) The plate was incubated protected from light for 60 minutes at 20° C. prior to read. Reads were performed on a CLARIOstar plate reader (BMG Labtech) in duplicate, and data were fitted to a 1:1 binding model with hill slope using an in-house script. All provided concentrations are final concentrations.

[2] = target: T2, beta-catenin in DLD1 TCF/LEF luciferase reporter cells (Homo sapiens (Human), UniProt P35222 1-781); test: cell-based or functional assay
T2 sequence: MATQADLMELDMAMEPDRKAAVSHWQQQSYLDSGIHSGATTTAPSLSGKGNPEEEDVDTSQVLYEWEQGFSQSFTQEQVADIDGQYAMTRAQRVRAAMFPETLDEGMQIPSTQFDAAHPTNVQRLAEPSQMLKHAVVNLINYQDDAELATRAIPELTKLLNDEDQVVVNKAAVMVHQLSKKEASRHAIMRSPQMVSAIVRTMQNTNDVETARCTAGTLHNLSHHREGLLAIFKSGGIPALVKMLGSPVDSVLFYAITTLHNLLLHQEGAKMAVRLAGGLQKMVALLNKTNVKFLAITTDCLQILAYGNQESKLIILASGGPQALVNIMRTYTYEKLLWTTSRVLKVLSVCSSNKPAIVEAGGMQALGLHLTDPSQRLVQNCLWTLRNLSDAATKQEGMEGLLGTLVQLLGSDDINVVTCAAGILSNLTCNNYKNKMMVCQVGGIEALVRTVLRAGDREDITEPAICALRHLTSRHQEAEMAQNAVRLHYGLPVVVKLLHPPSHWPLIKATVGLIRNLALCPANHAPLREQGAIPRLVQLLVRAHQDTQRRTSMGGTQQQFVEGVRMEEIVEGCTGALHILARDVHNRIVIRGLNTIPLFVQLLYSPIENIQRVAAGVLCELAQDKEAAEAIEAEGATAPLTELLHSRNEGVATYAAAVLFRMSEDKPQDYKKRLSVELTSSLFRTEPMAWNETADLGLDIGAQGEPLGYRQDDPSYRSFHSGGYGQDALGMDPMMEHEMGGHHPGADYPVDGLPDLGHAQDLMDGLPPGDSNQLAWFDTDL

[3] = target: T3, B-cat-Halo (Homo sapiens (Human), UniProt P35222 1-781); test: cell-based or functional assay
T3 sequence: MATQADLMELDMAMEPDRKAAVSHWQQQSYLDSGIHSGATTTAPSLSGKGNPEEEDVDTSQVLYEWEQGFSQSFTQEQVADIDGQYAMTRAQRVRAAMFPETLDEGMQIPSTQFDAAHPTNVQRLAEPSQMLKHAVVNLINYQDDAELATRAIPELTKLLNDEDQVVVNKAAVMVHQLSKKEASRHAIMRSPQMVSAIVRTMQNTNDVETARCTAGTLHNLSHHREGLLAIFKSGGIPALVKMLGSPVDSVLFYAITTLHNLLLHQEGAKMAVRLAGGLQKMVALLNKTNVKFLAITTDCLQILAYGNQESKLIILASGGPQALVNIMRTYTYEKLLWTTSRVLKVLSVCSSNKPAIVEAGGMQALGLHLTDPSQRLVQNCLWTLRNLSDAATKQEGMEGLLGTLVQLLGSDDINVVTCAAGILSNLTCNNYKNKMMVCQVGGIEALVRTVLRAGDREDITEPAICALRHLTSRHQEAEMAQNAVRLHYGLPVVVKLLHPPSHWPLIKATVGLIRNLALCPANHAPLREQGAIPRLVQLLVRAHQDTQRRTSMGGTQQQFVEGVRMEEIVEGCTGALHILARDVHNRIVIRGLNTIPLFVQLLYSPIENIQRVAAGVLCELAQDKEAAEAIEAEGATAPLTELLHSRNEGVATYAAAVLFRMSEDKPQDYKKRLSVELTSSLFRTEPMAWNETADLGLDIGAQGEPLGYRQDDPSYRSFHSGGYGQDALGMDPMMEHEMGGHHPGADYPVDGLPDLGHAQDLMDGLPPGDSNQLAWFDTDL

[4] = target: T4, full-length beta-Catenin (Uniprot ID P35222) (Homo sapiens (Human), UniProt P35222 1-781); test: fluorescence polarization competition; peptide titrated against full-length beta-catenin + 5FAM-TCF4(10-53)
T4 construct: also called bCat; B-Catenin
T4 sequence: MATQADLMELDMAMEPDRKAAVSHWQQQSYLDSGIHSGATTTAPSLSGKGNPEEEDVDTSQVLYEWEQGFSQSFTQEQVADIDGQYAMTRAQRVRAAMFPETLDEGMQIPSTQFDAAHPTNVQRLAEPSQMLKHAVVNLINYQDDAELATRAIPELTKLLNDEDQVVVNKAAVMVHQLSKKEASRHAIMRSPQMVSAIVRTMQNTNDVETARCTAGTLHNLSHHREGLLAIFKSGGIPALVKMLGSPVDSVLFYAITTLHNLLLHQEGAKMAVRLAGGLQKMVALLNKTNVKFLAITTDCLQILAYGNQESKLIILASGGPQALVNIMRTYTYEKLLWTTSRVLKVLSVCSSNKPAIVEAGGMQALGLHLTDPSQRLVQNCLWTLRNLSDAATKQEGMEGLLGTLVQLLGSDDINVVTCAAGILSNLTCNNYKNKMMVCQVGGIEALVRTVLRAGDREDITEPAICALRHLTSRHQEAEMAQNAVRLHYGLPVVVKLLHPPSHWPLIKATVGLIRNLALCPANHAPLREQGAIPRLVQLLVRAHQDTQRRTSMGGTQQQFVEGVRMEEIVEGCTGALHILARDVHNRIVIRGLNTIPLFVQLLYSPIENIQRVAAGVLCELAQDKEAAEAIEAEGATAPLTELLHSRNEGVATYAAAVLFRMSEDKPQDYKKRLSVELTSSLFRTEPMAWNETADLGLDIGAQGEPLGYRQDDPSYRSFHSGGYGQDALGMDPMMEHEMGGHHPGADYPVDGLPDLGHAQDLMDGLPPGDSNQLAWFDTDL
Method: as §1

B1: I-66: Ac-Ala-Asp-Ile-RdN-Asp-Glu-Ala-Ala-Phe-Gln-S7-Phe-Trp-His-NH2 (stapled peptide) (peptide)
peptide: Ac-ADI[RdN]DEAAFQ[S7]FWH-NH2
modifications: staple 4-11
Question: Which IC50 [1] does the source give for B1 here?
Answer: 1.09 µM

B2: I-2043 (peptide)
peptide: Ac-[αAllylPro]D[tBuAla][B5(3)]D[Phe(3-COOH)]AAFL[PyrS2″][3Thi][Bta]N-NH2
modifications: staple 1-4, 4-11
Question: For B2, which “DLD1 4% Abs IC50” value [2] is on record?
Answer: 1 µM

Question: What about the “NanoBRET Abs IC50” value [3] of the same binder?
Answer: 2.8 µM

B3: I-724 (peptide)
peptide: Ac-[αAllylPro]DI[B5]DEAA[Phe(3-OMe)]Q[S8]F[Bta]Q-NH2
modifications: staple 1-4, 4-11
notes: also called Ac-PL3-Asp-Ile-B5-Asp-Glu-Ala-Ala-3OMeF-Gln-S8-Phe-BztA-Gln-NH2
Question: Which IC50 [4] does the source give for B3 here?
Answer: 0.114 µM
